The text below walks through data of paper PMC8218686.

This data set has as its system T1, YhjC-His6 (Shigella flexneri (serotype 5a M90T?)), ORF:c5ce7ff9.
T1 sequence: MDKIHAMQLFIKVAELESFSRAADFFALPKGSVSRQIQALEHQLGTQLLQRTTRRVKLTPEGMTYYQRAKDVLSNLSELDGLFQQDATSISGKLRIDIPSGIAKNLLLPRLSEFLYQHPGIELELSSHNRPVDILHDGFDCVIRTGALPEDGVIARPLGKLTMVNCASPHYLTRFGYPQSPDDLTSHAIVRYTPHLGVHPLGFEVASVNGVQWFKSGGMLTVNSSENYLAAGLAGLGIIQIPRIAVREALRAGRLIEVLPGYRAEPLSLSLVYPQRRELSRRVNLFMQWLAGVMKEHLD
Briefly: EMSA. To be noted: 20 mM Tris-HCl pH 7.5, 50 mM KCl, 1 mM EDTA, 1 mM DTT, 5% glycerol.

Take “GGTTATAGTCCCTTTCAGTGCAAATACTTAGCTTGTTGCACAGAGAAATAGAAGCTGCATAAGCTCTTTCTTCAAAAAATGTAAATAAAGTTAAATATAGGAAAAATTACTTAATCTATCTTAATAACGGAAAGATTTTGTATACAATCACTGTTACAGAAATTTCTTAGTTACTCTGTAAACACTAAATATAGTTTGGTATATTCTGTTGAATTTATGATGGATATGGGACATAAAAACAAAATAGATATAAAGGTTCGCTTGCATAAC (double strand) [virF promoter (PvirF)]”: the binding result is reported as “binds”.
